The record followed here is patent publication US6165749.

This data set has as its system AccIII restriction endonuclease (L2V) L2V. Put plainly: cleavage_in_vitro. The following applies: Takara data sheet conditions; about 16 times the level of the Acc bacterium.

The substance “AccIII assay substrate DNA (data sheet conditions)” came in with an activity (units per g wet cells) of 8000.
